The values that follow are results of earlier work, collected in PMC3621282.

The data set concerns the target VEGFR-2 (Homo sapiens) (UniProt P35968).
Sequence of UniProt P35968 (P35968 20-1356): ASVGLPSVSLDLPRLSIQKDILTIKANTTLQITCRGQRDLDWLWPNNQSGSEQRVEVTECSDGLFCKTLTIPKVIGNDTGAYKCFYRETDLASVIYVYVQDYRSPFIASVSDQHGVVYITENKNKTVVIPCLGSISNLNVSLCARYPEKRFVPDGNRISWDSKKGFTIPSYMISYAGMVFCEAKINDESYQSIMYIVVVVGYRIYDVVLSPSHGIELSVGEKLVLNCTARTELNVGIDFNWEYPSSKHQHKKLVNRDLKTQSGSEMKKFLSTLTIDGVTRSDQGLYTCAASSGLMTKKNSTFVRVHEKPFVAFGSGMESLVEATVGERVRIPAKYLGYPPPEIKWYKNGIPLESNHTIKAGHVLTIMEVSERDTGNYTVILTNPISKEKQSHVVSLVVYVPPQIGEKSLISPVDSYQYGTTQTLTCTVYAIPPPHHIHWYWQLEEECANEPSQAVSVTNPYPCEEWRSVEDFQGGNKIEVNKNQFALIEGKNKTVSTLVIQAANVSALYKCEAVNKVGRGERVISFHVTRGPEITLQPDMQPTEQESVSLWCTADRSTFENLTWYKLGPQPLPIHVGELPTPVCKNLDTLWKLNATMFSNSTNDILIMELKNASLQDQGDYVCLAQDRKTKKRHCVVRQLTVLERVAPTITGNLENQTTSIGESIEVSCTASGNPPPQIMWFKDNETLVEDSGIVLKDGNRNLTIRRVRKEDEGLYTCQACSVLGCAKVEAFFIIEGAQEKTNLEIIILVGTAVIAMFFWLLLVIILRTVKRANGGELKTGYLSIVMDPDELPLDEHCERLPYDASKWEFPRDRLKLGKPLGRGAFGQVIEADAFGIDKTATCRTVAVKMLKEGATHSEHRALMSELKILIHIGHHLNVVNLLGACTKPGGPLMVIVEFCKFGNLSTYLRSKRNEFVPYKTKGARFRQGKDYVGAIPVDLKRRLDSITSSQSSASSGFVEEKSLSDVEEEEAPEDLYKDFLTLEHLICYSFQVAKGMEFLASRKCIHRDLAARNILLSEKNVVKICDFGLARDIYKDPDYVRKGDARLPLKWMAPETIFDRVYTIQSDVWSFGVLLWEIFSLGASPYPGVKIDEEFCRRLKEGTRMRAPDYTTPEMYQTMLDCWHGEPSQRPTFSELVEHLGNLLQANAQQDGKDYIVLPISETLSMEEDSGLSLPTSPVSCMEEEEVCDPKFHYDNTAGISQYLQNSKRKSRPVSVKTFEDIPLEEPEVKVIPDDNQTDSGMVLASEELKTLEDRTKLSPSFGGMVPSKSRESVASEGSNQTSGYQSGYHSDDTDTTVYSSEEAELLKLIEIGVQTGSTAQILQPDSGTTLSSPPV

On to VEGF (from UniProt P15692), for which the Kd was 0.1 nM.

What is called Kd is the equilibrium constant for the complex coming apart.
